Reference: US20140328762A1 (published 2014)

Key:
JunLZ-Sb1b3 beacon = JunLZ-Sb1b3 beacon (UniProt P0AEX9 27-392 = MBP); test: fluorescence screening assay (FIG. 11)
Method: (§1) The graphs show a comparison of binding-induced fluorescence enhancement of JunLZ beacons. Concentration for all beacons is 1.0 and concentration of FosLZ or scrFosLZ is 10.0 μM. The assay was carried out in 0.1 M PBS, pH7.2 at room temperature. […] Numbers above the curves represent signal to noise ratios calculated from the maxim emission values that centered around 585 nm.
(§2) The purified fusion proteins were used directly without removing the MBP fusion partner. To prepare the beacons, TAMRA fluorophores were attached to the fusion proteins via the maleimide chemistry.

JunLZ-Sb3b5 beacon = JunLZ-Sb3b5 beacon (UniProt P0AEX9 27-392 = MBP); test: fluorescence screening assay (FIG. 11)
Method: as §1, §2

JunLZ-Sb1b4 beacon = JunLZ-Sb1b4 beacon (UniProt P0AEX9 27-392 = MBP); test: fluorescence screening assay (FIG. 11)
Method: as §1, §2

JunLZ-Lb1b3 beacon = JunLZ-Lb1b3 beacon (UniProt P0AEX9 27-392 = MBP); test: fluorescence emission screening (FIG. 11)
Method: as §1, §2

JunLZ-Lb3b5 beacon = JunLZ-Lb3b5 beacon (UniProt P0AEX9 27-392 = MBP); test: fluorescence emission screening (FIG. 11)
Method: as §1, §2

JunLZ-Lb2b5 beacon = JunLZ-Lb2b5 beacon (UniProt P0AEX9 27-392 = MBP); test: fluorescence emission screening (FIG. 11)
Method: as §1, §2

JunLZ-Lb1b4 beacon = JunLZ-Lb1b4 beacon (UniProt P0AEX9 27-392 = MBP); test: fluorescence emission screening (FIG. 11)
Method: as §1, §2

Measured: binding result

B1: scrFosLZ (MBP-scrFosLZ, fusion protein of MBP and the scrambled cFos leucine zipper) (other, not shown: large carriers)
chain: GGSGGTDTAQAETDQAEDEKSAAQTEIANALKEKEKAEFILA
notes: Negative control; also called scrambled FosLZ
no binding (tested: 10.0 µM): all assays above
